Experiment [1] deals with mouse Stem Cell Factor, 6xHIS tag (mouse) (UniProt P20826). The experiment in a line: BIAcore, SCF on high density CM5 chip. In general terms: SPR reads the build-up and loss of mass on a sensor chip optically.
For experiment [2], the target named is rat Stem Cell Factor, GlySerHis(6) tag (rat) (UniProt P21581). The experiment in a line: BIAcore, SCF on high density CM5 chip.
Experiment [3] deals with human Stem Cell Factor, 6xHIS tag (human) (UniProt P21583). The experiment in a line: BIAcore, SCF on CM5 chip.
The target in experiment [4] is mouse Stem Cell Factor, 6xHIS tag (mouse) (UniProt P20826). The experiment is described as follows: BIAcore, SCF on CM5 chip.
Experiment [5] addresses mouse c-kit (recombinant, on BIAcore chip) (mouse) (UniProt P05532). The experiment in a line: BIAcore, mouse cKIT on high density CM5 chip.

What is called Kd is the constant that tells how readily two partners part at equilibrium. Read a low Kd as tighter binding.

Chain of mouse Stem Cell Factor, 6xHIS tag (mouse) (P20826 26-190 limits assumed): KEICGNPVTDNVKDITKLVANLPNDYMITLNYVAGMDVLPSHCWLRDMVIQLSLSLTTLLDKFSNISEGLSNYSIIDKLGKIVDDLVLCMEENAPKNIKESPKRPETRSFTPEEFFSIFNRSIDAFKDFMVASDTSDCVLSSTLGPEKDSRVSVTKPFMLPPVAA
Chain of human Stem Cell Factor, 6xHIS tag (human) (P21583 26-190 limits assumed): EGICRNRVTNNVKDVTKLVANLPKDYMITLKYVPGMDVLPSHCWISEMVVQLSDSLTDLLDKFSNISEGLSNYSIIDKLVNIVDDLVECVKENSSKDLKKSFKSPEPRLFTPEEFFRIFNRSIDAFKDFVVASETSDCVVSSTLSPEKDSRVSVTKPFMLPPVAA
Chain of rat Stem Cell Factor, GlySerHis(6) tag (rat) (P21581 other isoform, or with tags, fused parts or gaps limits assumed): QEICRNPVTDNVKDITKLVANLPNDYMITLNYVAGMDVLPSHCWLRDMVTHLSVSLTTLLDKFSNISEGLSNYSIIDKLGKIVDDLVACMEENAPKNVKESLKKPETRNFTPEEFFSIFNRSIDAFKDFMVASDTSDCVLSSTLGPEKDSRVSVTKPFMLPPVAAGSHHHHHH

“mcKIT GNNK+ E207A (from UniProt P05532 25-527) (Fc fusion)”: the Kd was 0.026 µM in experiment [1] and 0.081 µM in experiment [2].

Turning to “Cyno cKIT ECD-Fc (from UniProt O95905) (Fc fusion)”, the figures for the Kd in experiment [3] and in experiment [4] were 0.00978 µM and 0.015 µM, respectively. In the case of anti mouse cKIT antibody clone 2B8, in experiment [5], the response (RU) came out at 100 RU.

Values taken from patent US20120253017A1.
